# T1: hAng-1 (human, UniProt Q15389 20-498, limits assumed)
# T1 construct: Used in 'the same experiment' as hAng-2 C-His in SPR
# T1 sequence (looked up): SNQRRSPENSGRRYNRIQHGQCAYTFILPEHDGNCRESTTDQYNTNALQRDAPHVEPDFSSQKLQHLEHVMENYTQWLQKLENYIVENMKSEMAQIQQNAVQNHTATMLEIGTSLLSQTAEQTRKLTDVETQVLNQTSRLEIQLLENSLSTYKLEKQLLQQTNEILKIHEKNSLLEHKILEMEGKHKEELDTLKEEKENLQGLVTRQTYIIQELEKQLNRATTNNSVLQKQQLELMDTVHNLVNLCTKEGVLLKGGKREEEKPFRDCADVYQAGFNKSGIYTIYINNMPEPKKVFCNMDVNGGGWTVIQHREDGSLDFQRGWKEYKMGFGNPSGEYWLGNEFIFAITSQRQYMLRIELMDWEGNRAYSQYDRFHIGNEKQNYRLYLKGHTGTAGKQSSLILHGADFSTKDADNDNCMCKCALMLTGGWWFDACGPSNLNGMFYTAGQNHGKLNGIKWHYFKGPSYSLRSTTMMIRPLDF
# B1: SAIT-ANG-2-AB-m3E2 (antibody, V domains shown)
# VH: EVQLQQSGAELVKPGASVKLSCTASGFNIKDPYIHWVKQRPEQGLEWIGRIDPANGNTKYDPKFQGKATITADTSSNTAYLQLSSLTSEDTAVYYCVRRWDGGGFDYWGQGTSVTVSS
# VL: DIQMTQTTSSLSASLGDRVTISCRASQDISNYLNWYQQKPDGTVKLLIYYTSRLHSGVPSRFSGSGSGTDYSLTITNLEQEDIATYFCQQGNTLPWTFGGGTKLEIK
# notes: Mouse hybridoma monoclonal antibody purified on protein G
# B2: SAIT-ANG-2-AB-m8D3 (antibody, V domains shown)
# VH: EVQLQQSGPELVKPGDSVKMSCKASGYTFTDYYMKWVRQSHGKSLQWVGEINPKNGDTFYNQIFKGKATLTVDKSSSTAYMQLTSLTSEDSAVYYCTRENDYDVGFFDYWGQGTSVTVSS
# VL: TIVMTQTPKFLLVSAGDRITITCKASQSVSNDVAWYQQKPGQSPKLLIYYASNRYPGVPDRFTGSGYGTDFTFTISTVQAEDLAVYFCQQDYTSPWTFGGGTELEIK
# notes: as for B1
# B3: SAIT-ANG-2-AB-m1B6 (antibody, V domains shown)
# VH: QIQLVQSGPELKKPGETVKISCKASGYTFTNYGMNWVKQAPGKGLKWMGWINTYTGEPTYADDFKGRFAFSLETSASTAYLQINNLKNEDTATYFCARDHDGYLMDYWGQGTSVTVSS
# VL: DIQMTQTTSSLSASLGDRVTISCSTSQGISNYLNWYQQKPDGTVKLLIFYTSSLHSGVPSRFSGSGSGTDYSLTISNLEPEDIATYYCQQYSKLPYTFGGGTKLEIK
# notes: Mouse hybridoma monoclonal antibody purified on protein G; also called SAIT-ANG-m2-AB-1B6
# Biological target: T1, hAng-1
# Experiment: SPR, BIAcore T100, antigen captured on chip, antibody from 100 nM in two-fold dilutions
# Protocol: An anti-His antibody was immobilized to the degree of 8,000 response units (RU) on a CM5 sensor chip (GE Healthcare) using a pH 5.0 acetate solution and an amine coupling kit (GE Healthcare). Recombinant hAng-2 protein (C-His, R&D Systems) was flowed into this immobilized antibody at a concentration of 6 μg/ml to capture the antibody at 100˜200 RU. In this regard, the antibodies obtained in Reference Example 2.2.2 were serially diluted by half each time starting from 100 nM before application. […] Kd values were calculated from the measurements. The same experiment was conducted with hAng-1.
row,binding result,Binder
1,no binding,B1
2,no binding,B2
3,no binding,B3
